From patent US20160272683A1 (Novo Nordisk, published 2016)
Numbered stars: 1 amine (or outer) side, 2 acyl side, 3 side chain; on linkers, the order of the positions; unused ones are H or OH. * marks the point of attachment. C20 diacid = O=C(O)CCCCCCCCCCCCCCCCCCC(=O)*; C18 diacid = O=C(O)CCCCCCCCCCCCCCCCC(=O)*; C16 diacid = O=C(O)CCCCCCCCCCCCCCC(=O)*; γGlu = O=C(O)[C@H](CCC(=O)[*:2])N[*:1]; C14 diacid = O=C(O)CCCCCCCCCCCCC(=O)*; AEEA = NCCOCCOCC(=O)O

T1: human amylin receptor (amylin 3(a) receptor: human calcitonin receptor with RAMP-3) (human, UniProt P30988 25-474; O60896 24-148, limits assumed)
T1 construct: whole, on cells; Assay V: membranes of the Amylin 3(a)/CRE-luc BHK cells on SPA beads; also called hAmylin-R
T1 sequence (looked up) 1: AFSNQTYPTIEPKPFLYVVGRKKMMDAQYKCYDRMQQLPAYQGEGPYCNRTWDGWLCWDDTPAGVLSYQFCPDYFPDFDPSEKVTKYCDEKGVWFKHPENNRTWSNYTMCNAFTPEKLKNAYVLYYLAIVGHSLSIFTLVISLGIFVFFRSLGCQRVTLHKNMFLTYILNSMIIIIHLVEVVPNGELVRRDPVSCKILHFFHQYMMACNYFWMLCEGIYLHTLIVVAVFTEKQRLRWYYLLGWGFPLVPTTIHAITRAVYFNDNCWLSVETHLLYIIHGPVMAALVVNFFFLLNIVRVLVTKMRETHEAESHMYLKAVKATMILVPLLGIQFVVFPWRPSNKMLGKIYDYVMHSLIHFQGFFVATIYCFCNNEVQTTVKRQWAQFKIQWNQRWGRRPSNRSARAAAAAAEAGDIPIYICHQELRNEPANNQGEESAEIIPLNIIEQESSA
T1 sequence (looked up) 2: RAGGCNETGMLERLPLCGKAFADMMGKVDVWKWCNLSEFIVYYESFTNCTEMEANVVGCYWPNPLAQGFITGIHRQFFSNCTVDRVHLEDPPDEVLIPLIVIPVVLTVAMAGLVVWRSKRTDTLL

T2: human calcitonin receptor (human, UniProt P30988 25-474)
T2 construct: whole, on cells; Assay VII: membranes on SPA beads; also called hCT-R; hCTR
T2 sequence (looked up): T1 sequence (looked up) 1

B1: [N-terminal(C20 diacid-gGlu), des1, 4G, 15Q, 21Q, 23Y, 30S, 31Q, 32T, 33Y]mimylin (peptide)
peptide: {C20 diacid-γGlu}-ASGLSTAALGRLSQELHELQTYPRTETGSQTY-NH2
SMILES: CC(C)C[C@H](NC(=O)CNC(=O)[C@H](CO)NC(=O)[C@H](C)NC(=O)CC[C@H](NC(=O)CCCCCCCCCCCCCCCCCCC(=O)O)C(=O)O)C(=O)N[C@@H](CO)C(=O)N[C@H](C(=O)N[C@@H](C)C(=O)N[C@@H](C)C(=O)N[C@@H](CC(C)C)C(=O)NCC(=O)N[C@@H](CCCNC(=N)N)C(=O)N[C@@H](CC(C)C)C(=O)N[C@@H](CO)C(=O)N[C@@H](CCC(N)=O)C(=O)N[C@@H](CCC(=O)O)C(=O)N[C@@H](CC(C)C)C(=O)N[C@@H](Cc1c[nH]cn1)C(=O)N[C@@H](CCC(=O)O)C(=O)N[C@@H](CC(C)C)C(=O)N[C@@H](CCC(N)=O)C(=O)N[C@H](C(=O)N[C@@H](Cc1ccc(O)cc1)C(=O)N1CCC[C@H]1C(=O)N[C@@H](CCCNC(=N)N)C(=O)N[C@H](C(=O)N[C@@H](CCC(=O)O)C(=O)N[C@H](C(=O)NCC(=O)N[C@@H](CO)C(=O)N[C@@H](CCC(N)=O)C(=O)N[C@H](C(=O)N[C@@H](Cc1ccc(O)cc1)C(N)=O)[C@@H](C)O)[C@@H](C)O)[C@@H](C)O)[C@@H](C)O)[C@@H](C)O
notes: mimylin derivative; des1 = residue 1 deleted
B2: [N-terminal(C20 diacid-gGlu), des1, 9V, 15Q, 21Q, 23Y, 30S, 31G, 32T, 33Y]mimylin (peptide)
peptide: {C20 diacid-γGlu}-ASELSTAVLGRLSQELHELQTYPRTETGSGTY-NH2
SMILES: CC(C)C[C@H](NC(=O)[C@H](CCCNC(=N)N)NC(=O)CNC(=O)[C@H](CC(C)C)NC(=O)[C@@H](NC(=O)[C@H](C)NC(=O)[C@@H](NC(=O)[C@H](CO)NC(=O)[C@H](CC(C)C)NC(=O)[C@H](CCC(=O)O)NC(=O)[C@H](CO)NC(=O)[C@H](C)NC(=O)CC[C@H](NC(=O)CCCCCCCCCCCCCCCCCCC(=O)O)C(=O)O)[C@@H](C)O)C(C)C)C(=O)N[C@@H](CO)C(=O)N[C@@H](CCC(N)=O)C(=O)N[C@@H](CCC(=O)O)C(=O)N[C@@H](CC(C)C)C(=O)N[C@@H](Cc1c[nH]cn1)C(=O)N[C@@H](CCC(=O)O)C(=O)N[C@@H](CC(C)C)C(=O)N[C@@H](CCC(N)=O)C(=O)N[C@H](C(=O)N[C@@H](Cc1ccc(O)cc1)C(=O)N1CCC[C@H]1C(=O)N[C@@H](CCCNC(=N)N)C(=O)N[C@H](C(=O)N[C@@H](CCC(=O)O)C(=O)N[C@H](C(=O)NCC(=O)N[C@@H](CO)C(=O)NCC(=O)N[C@H](C(=O)N[C@@H](Cc1ccc(O)cc1)C(N)=O)[C@@H](C)O)[C@@H](C)O)[C@@H](C)O)[C@@H](C)O
notes: as for B1
B3: [N-terminal(C20 diacid-gGlu-2xOEG), des1, 30S, 31G]mimylin (peptide)
peptide: {C20 diacid-γGlu-AEEA-AEEA}-ASELSTAALGRLSAELHELATLPRTETGSGSP-NH2
notes: mimylin derivative; des1 = residue 1 deleted; also called Ex. #42; 42
B4: [N-terminal(C20 diacid-gGlu-3xOEG), des1, 30S, 31G]mimylin (peptide)
peptide: {C20 diacid-γGlu-AEEA-AEEA-AEEA}-ASELSTAALGRLSAELHELATLPRTETGSGSP-NH2
notes: mimylin derivative; des1 = residue 1 deleted; also called Ex. #43; 43
B5: [N-terminal(C20 diacid-gGlu-5xOEG), des1, 30S, 31G]mimylin (peptide)
peptide: {C20 diacid-γGlu-AEEA-AEEA-AEEA-AEEA-AEEA}-ASELSTAALGRLSAELHELATLPRTETGSGSP-NH2
notes: mimylin derivative; des1 = residue 1 deleted; also called Ex. #45; 45
B6: [N-terminal(C14 diacid-gGlu), des1, 30S, 31G]mimylin (peptide)
peptide: {C14 diacid-γGlu}-ASELSTAALGRLSAELHELATLPRTETGSGSP-NH2
notes: mimylin derivative; des1 = residue 1 deleted; also called Ex. #50; 50
B7: [N-terminal(C18 diacid), des1, 30S, 31G]mimylin (peptide)
peptide: {C18 diacid}-ASELSTAALGRLSAELHELATLPRTETGSGSP-NH2
notes: mimylin derivative; des1 = residue 1 deleted; also called Ex. #48; 48
B8: [N-terminal(C14 diacid), des1, 30S, 31G]mimylin (peptide)
peptide: {C14 diacid}-ASELSTAALGRLSAELHELATLPRTETGSGSP-NH2
notes: mimylin derivative; des1 = residue 1 deleted; also called Ex. #51; 51
B9: [N-terminal(C18 diacid-gGlu-2xOEG), des1, 4G, 9V, 15Q, 21Q, 23Y, 30S, 31G, 32T, 33Y]mimylin (peptide)
peptide: {C18 diacid-γGlu-AEEA-AEEA}-ASGLSTAVLGRLSQELHELQTYPRTETGSGTY-NH2
SMILES: CC(C)C[C@H](NC(=O)CNC(=O)[C@H](CO)NC(=O)[C@H](C)NC(=O)COCCOCCNC(=O)COCCOCCNC(=O)CC[C@H](NC(=O)CCCCCCCCCCCCCCCCC(=O)O)C(=O)O)C(=O)N[C@@H](CO)C(=O)N[C@H](C(=O)N[C@@H](C)C(=O)N[C@H](C(=O)N[C@@H](CC(C)C)C(=O)NCC(=O)N[C@@H](CCCNC(=N)N)C(=O)N[C@@H](CC(C)C)C(=O)N[C@@H](CO)C(=O)N[C@@H](CCC(N)=O)C(=O)N[C@@H](CCC(=O)O)C(=O)N[C@@H](CC(C)C)C(=O)N[C@@H](Cc1c[nH]cn1)C(=O)N[C@@H](CCC(=O)O)C(=O)N[C@@H](CC(C)C)C(=O)N[C@@H](CCC(N)=O)C(=O)N[C@H](C(=O)N[C@@H](Cc1ccc(O)cc1)C(=O)N1CCC[C@H]1C(=O)N[C@@H](CCCNC(=N)N)C(=O)N[C@H](C(=O)N[C@@H](CCC(=O)O)C(=O)N[C@H](C(=O)NCC(=O)N[C@@H](CO)C(=O)NCC(=O)N[C@H](C(=O)N[C@@H](Cc1ccc(O)cc1)C(N)=O)[C@@H](C)O)[C@@H](C)O)[C@@H](C)O)[C@@H](C)O)C(C)C)[C@@H](C)O
notes: mimylin derivative; des1 = residue 1 deleted; also called Ex. #121; 121
B10: [N-terminal(C16 diacid), des1, 30S, 31G]mimylin (peptide)
peptide: {C16 diacid}-ASELSTAALGRLSAELHELATLPRTETGSGSP-NH2
notes: mimylin derivative; des1 = residue 1 deleted; also called Ex. #49; 49
B11: [N-terminal(C18 diacid-gGlu), des1, 30S, 31G]mimylin (peptide)
peptide: {C18 diacid-γGlu}-ASELSTAALGRLSAELHELATLPRTETGSGSP-NH2
notes: mimylin derivative; des1 = residue 1 deleted; also called Ex. #46; 46
B12: [N-terminal(C16 diacid-gGlu), des1, 30S, 31G]mimylin (peptide)
peptide: {C16 diacid-γGlu}-ASELSTAALGRLSAELHELATLPRTETGSGSP-NH2
notes: mimylin derivative; des1 = residue 1 deleted; also called Ex. #47; 47
B13: [N-terminal(C20 diacid-gGlu), des1, 4Q, 9V, 15Q, 16R, 19R, 21Q, 23Y, 27Q, 30S, 31Q, 32T, 33Y]mimylin (peptide)
peptide: {C20 diacid-γGlu}-ASQLSTAVLGRLSQRLHRLQTYPRTQTGSQTY-NH2
SMILES: CC(C)C[C@H](NC(=O)[C@H](CCCNC(=N)N)NC(=O)CNC(=O)[C@H](CC(C)C)NC(=O)[C@@H](NC(=O)[C@H](C)NC(=O)[C@@H](NC(=O)[C@H](CO)NC(=O)[C@H](CC(C)C)NC(=O)[C@H](CCC(N)=O)NC(=O)[C@H](CO)NC(=O)[C@H](C)NC(=O)CC[C@H](NC(=O)CCCCCCCCCCCCCCCCCCC(=O)O)C(=O)O)[C@@H](C)O)C(C)C)C(=O)N[C@@H](CO)C(=O)N[C@@H](CCC(N)=O)C(=O)N[C@@H](CCCNC(=N)N)C(=O)N[C@@H](CC(C)C)C(=O)N[C@@H](Cc1c[nH]cn1)C(=O)N[C@@H](CCCNC(=N)N)C(=O)N[C@@H](CC(C)C)C(=O)N[C@@H](CCC(N)=O)C(=O)N[C@H](C(=O)N[C@@H](Cc1ccc(O)cc1)C(=O)N1CCC[C@H]1C(=O)N[C@@H](CCCNC(=N)N)C(=O)N[C@H](C(=O)N[C@@H](CCC(N)=O)C(=O)N[C@H](C(=O)NCC(=O)N[C@@H](CO)C(=O)N[C@@H](CCC(N)=O)C(=O)N[C@H](C(=O)N[C@@H](Cc1ccc(O)cc1)C(N)=O)[C@@H](C)O)[C@@H](C)O)[C@@H](C)O)[C@@H](C)O
notes: mimylin derivative; des1 = residue 1 deleted; also called Ex. #132; 132

Legend:
[1] = target: T1, human amylin receptor (amylin 3(a) …); experiment: SPA competition vs 125I-rat amylin, membranes with human CTR + RAMP-3 (Assay V)
[2] = target: T2, human calcitonin receptor; experiment: SPA competition vs 125I-calcitonin, membranes with human CTR (Assay VII)
Method in brief: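 SPA competition on membranes from BHK tk'ts 13 cells stably expressing human calcitonin receptor plus CRE-luciferase reporter; membranes 35 ng/μL final with 0.05 mg/well beads.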

Binder	IC50 [1]	IC50 [2]
B1	0.131 nM	0.051 nM
B2	0.297 nM	0.085 nM
B3	0.159 nM	0.05 nM
B4	0.164 nM	0.05 nM
B5	0.389 nM	0.112 nM
B6	0.054 nM	0.023 nM
B7	0.077 nM	0.034 nM
B8	0.773 nM	0.14 nM
B9	0.371 nM	0.12 nM
B10	0.015 nM	0.011 nM
B11	0.516 nM	0.084 nM
B12	0.037 nM	0.024 nM
B13	0.39 nM	0.131 nM
